This note sets out measurements from patent US20260085105A1 (Amgen, published 2026).

For test [1], the target named is T1, AK2 peptide on HLA-A*02:01 (human).
T1 peptide: FLLDGFPRTV
Description: killing.

In test [2] the target is T2, COX14 peptide on HLA-A*02:01 (human).
T2 peptide: TVYGGYLCSV
Nature of the test: killing.

Test [3] concerns the target T3, DDAH peptide on HLA-A*02:01 (human).
T3 peptide: VLFTGREFFV
Nature of the test: killing.

Test [4] deals with T4, ACTB peptide on HLA-A*02:01 (human).
T4 peptide: DSGDGVTHTV
Description: killing.

Test [5] concerns the target T5, OSBPL10 peptide on HLA-A*02:01 (human).
T5 peptide: SQYSGQLHEV
Description: killing.

Test [6] deals with T6, PGRMC1 peptide on HLA-A*02:01 (human).
T6 peptide: LLKEGEEPTV
Description: killing.

The target in test [7] is T7, VPS13B peptide on HLA-A*02:01 (human).
T7 peptide: GLMDGSPHFL
Description: killing.

The target in test [8] is T8, ATOH8 peptide on HLA-A*02:01 (human).
T8 peptide: VLEDGPWKTV
Nature of the test: killing.

For test [9], the target named is T9, FAS peptide on HLA-A*02:01 (human).
T9 peptide: ALLDGRLQVV
Description: killing.

The target in test [10] is T10, PLD4 peptide on HLA-A*02:01 (human).
T10 peptide: GLFDGVPTTA
Description: killing.

Test [11] concerns the target T11, IMPDH1 peptide on HLA-A*02:01 (human).
T11 peptide: IIADGGIQTV
Description: killing.

Test [12] has as its target T12, XIAP peptide on HLA-A*02:01 (human).
T12 peptide: FLYTGEGTV
Description: killing.

The target of test [13] is T13, UTRN peptide on HLA-A*02:01 (human).
T13 peptide: NQWDGTQHGV
Description: killing.

Test [14] concerns the target T14, DPYSL4 peptide on HLA-A*02:01 (human).
T14 peptide: GLYDGPVHEV
Nature of the test: killing.

In test [15] the target is T15, DPYSL2 peptide on HLA-A*02:01 (human).
T15 peptide: GLYDGPVCEV
Description: killing.

Test [16] deals with T16, MYOF peptide on HLA-A*02:01 (human).
T16 peptide: FFVYDEPGHAV
Description: killing.

The target of test [17] is T17, CDNP2 peptide on HLA-A*02:01 (human).
T17 peptide: GVYGGSVHEA
Description: killing.

In test [18] the target is T18, KEAP1 peptide on HLA-A*02:01 (human).
T18 peptide: GVIDGHIYAV
Description: killing.

Test [19] has as its target T19, DYNC1H1 peptide on HLA-A*02:01 (human).
T19 peptide: FLSDPQVHTV
Nature of the test: killing.

For test [20], the target named is T20, STXBP5 peptide on HLA-A*02:01 (human).
T20 peptide: YTYDEAIHSV
Nature of the test: killing.

For test [21], the target named is T21, MAGE-A4 peptide on HLA-A*02:01 (human).
T21 peptide: GVYDGREHTV
Description: multimer staining.

Test [22] addresses T22, HERC4 peptide on HLA-A*02:01 (human).
T22 peptide: KVLEILHRV
Nature of the test: killing.

Test [23] has as its target T23, PSME2 peptide on HLA-A*02:01 (human).
T23 peptide: KVLERVNAV
Nature of the test: killing.

For test [24], the target named is T24, TP2 peptide on HLA-A*02:01 (human).
T24 peptide: KILEDVVGV
Nature of the test: killing.

For test [25], the target named is T25, HTR5A peptide on HLA-A*02:01 (human).
T25 peptide: KVLETLVTV
Description: killing.

Test [26] has as its target T26, RG1L peptide on HLA-A*02:01 (human).
T26 peptide: FLLETVVRV
Description: killing.

In test [27] the target is T27, CNOT1 peptide on HLA-A*02:01 (human).
T27 peptide: KVLGIVVGV
Description: killing.

Test [28] concerns the target T28, ATAD2 peptide on HLA-A*02:01 (human).
T28 peptide: KILEALQRV
Nature of the test: killing.

Test [29] deals with T29, GPC5 peptide on HLA-A*02:01 (human).
T29 peptide: KLLEQVNRI
Description: killing.

The target of test [30] is T30, MIA3 peptide on HLA-A*02:01 (human).
T30 peptide: KVLDKVFRA
Description: killing.

The target of test [31] is T31, SYNE3 peptide on HLA-A*02:01 (human).
T31 peptide: KLLDLQVRV
Nature of the test: killing.

The target of test [32] is T32, ANO5 peptide on HLA-A*02:01 (human).
T32 peptide: IVMEHVVFL
Description: killing.

Test [33] concerns the target T33, AXIN1 peptide on HLA-A*02:01 (human).
T33 peptide: ILDEHVQRV
Description: killing.

For test [34], the target named is T34, GRP78 peptide on HLA-A*02:01 (human).
T34 peptide: KVTHAVVTV
Description: killing.

For test [35], the target named is T35, PTRF peptide on HLA-A*02:01 (human).
T35 peptide: KLLEKVRKV
Nature of the test: killing.

The target of test [36] is T36, TRMT1L peptide on HLA-A*02:01 (human).
T36 peptide: VALEHFVLV
Nature of the test: killing.

Test [37] concerns the target T37, KIAA1033 peptide on HLA-A*02:01 (human).
T37 peptide: KVLNKVITV
Nature of the test: killing.

Test [38] deals with T38, NSD1 peptide on HLA-A*02:01 (human).
T38 peptide: KVQEQVHKV
Nature of the test: killing.

Test [39] has as its target T39, HNRNPR peptide on HLA-A*02:01 (human).
T39 peptide: KVWGNVVTV
Description: killing.

For test [40], the target named is T40, TSC1 peptide on HLA-A*02:01 (human).
T40 peptide: SLLGHVIRL
Description: killing.

Test [41] addresses T41, MADD peptide on HLA-A*02:01 (human).
T41 peptide: ILLEHKVVL
Description: killing.

The target in test [42] is T42, MAGE-A4 (100% identical in MAGEA8) peptide on HLA-A*02:01 (human).
T42 peptide: KVLEHVVRV
Description: multimer staining.

The target in test [43] is … (MAGEA8)/HLA-A*02:01 (human). Nature of the test: cell-based or functional assay.

B1: TCR8 of Tables 1A and 1B (printed TCR18) (TCR, V domains shown)
Valpha: KQEVTQIPAALSVPEGENLVLNCSFTDSAIYNLQWFRQDPGKGLTSLLLIQSSQREQTSGRLNASLDKSSGRSTLYIAASQPGDSATYLCAVDAHARLMFGDGTQLVVKP
Vbeta: EPEVTQTPSHQVTQMGQEVILRCVPISNHLYFYWYRQILGQKVEFLVSFYNNEISEKSEIFDDQFSVERPDGSNFTLKIRSTKLEDSAMYFCASISGEQYFGPGTRLTVT
In the case of B1, the binding result in test [1], in test [2], in [3], in [4], in test [5] and in test [6] was “no recognition” in each case. Moreover, the binding result in test [7], in test [8], in test [9], in [10], in test [11] and in [12] was “no recognition” throughout. The binding result in test [13], in [14], in test [15], in [16], in [17] and in [18] was “no recognition” each time. Moreover, the binding result in test [19] is recorded as “no recognition”; in test [20], “no recognition”; in test [21] it was “recognises”.

B2: TCR6 of Tables 1A and 1B (TCR7 of the examples) (TCR, V domains shown)
Valpha: AQTVTQSQPEMSVQEAETVTLSCTYDTSENNYYLFWYKQPPSRQMILVIRQEAYKQQNATENRFSVNFQKAAKSFSLKISDSQLGDTAMYFCAFVDSGYALNFGKGTSLLVTP
Vbeta: DVKVTQSSRYLVKRTGEKVFLECVQDMDHENMFWYRQDPGLGLRLIYFSYDVKMKEKGDIPEGYSVSREKKERFSLILESASTNQTSMYLCASSLDGARTQYFGPGTRLTVL
Take B2: the binding result in test [22], in test [23], in [24], in test [25], in [26] and in [27] was “no recognition” in each case. The binding result in [28], in [29], in [30], in test [31], in test [32] and in [33] was “no recognition” in each case. For the same molecule, the binding result in test [34], in test [35], in test [36], in test [37], in [38] and in [39] was “no recognition” in each case. Also, the figures for the binding result in [40], in test [41] and in test [42] were “no recognition”, “no recognition” and “recognises”, respectively.

B3: TCR4 (TCR10) (TCR, V domains shown)
Valpha: LAKTTQPISMDSYEGQEVNITCSHNNIATNDYITWYQQFPSQGPRFIIQGYKTKVTNEVASLFIPADRKSSTLSLPRVSLSDTAVYYCLVGGDEDMRFGAGTRLTVKP
Vbeta: EAGVAQSPRYKIIEKRQSVAFWCNPISGHATLYWYQQILGQGPKLLIQFQNNGVVDDSQLPKDRFSAERLKGVDSTLKIQPAKLEDSAVYLCASSLEYGPTYEQYFGPGTRLTVT
As to B3, the binding result in [22], in [23], in [24], in test [25], in [26] and in test [27] was “no recognition” each time. The binding result in test [28], in test [29], in test [30], in test [31], in test [32] and in [33] was “no recognition” throughout. Further, the binding result in [34], in test [35], in test [36], in test [37], in test [38] and in [39] was “no recognition” each time. Besides, the binding result is “no recognition” in test [40], “no recognition” in test [41] and “recognises” in [42].

B4: TCR18 (running number 7 of Table 1A) (TCR, V domains shown)
V domain 1: AQTVTQSQPEMSVQEAETVTLSCTYDTSENNYYLFWYKQPPSRQMILVIRQEAYKQQNATENRFSVNFQKAAKSFSLKISDSQLGDTAMYFCALLDSGNTPLVFGKGTRLSVIA
V domain 2: NAGVTQTPKFRILKIGQSMTLQCAQDMNHNYMYWYRQDPGMGLKLIYYSVGAGITDKGEVPNGYNVSRSTTEDFPLRLELAAPSQTSVYFCASSYTNNEQFFGPGTRLTVLE
B4: in test [43], the “fold difference in EC50 between the MAGEA4 and MAGEA8 peptides, TDCC on peptide-loaded T2 cells” value is over 1000 fold.

B5: TCR7 of Tables 1A and 1B (TCR18) (TCR, V domains shown)
Valpha: B4 V domain 1
Vbeta: NAGVTQTPKFRILKIGQSMTLQCAQDMNHNYMYWYRQDPGMGLKLIYYSVGAGITDKGEVPNGYNVSRSTTEDFPLRLELAAPSQTSVYFCASSYTNNEQFFGPGTRLTVL
Regarding B5, the binding result in test [1], in [2], in test [3], in test [4], in [5] and in test [6] was “no recognition” each time. Also, the binding result in test [7], in [8], in test [9], in test [10], in test [11] and in test [12] was “no recognition” each time. Further, the binding result in [13], in [14], in test [15], in [16], in test [17] and in test [18] was “no recognition” in each case. Moreover, the binding result in test [19] is on record as “no recognition”; in test [20], “no recognition”; in test [21] it was “recognises”.
